Measurements: paper doi:10.1101/2025.08.25.672131, “A basic leucine zipper uses a dimer pathway to locate its targets in DNA mixtures”

T1: CREB-bZIP-ΔLZ (human, UniProt P16220-1 277-315, C300S;C310S)
T1 chain: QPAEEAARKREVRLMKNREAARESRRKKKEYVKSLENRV

T2: Jun bZIP-ΔLZ (human, UniProt P05412 246-284)
T2 chain: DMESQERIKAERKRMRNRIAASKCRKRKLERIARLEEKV


Assays:
CREB-bZIP-ΔLZ = target: T1, CREB-bZIP-ΔLZ; assay: fluorescence anisotropy; monomer; Stopped-flow at 25 C; assay buffer not stated in the material (protein storage: 10 mM MES pH 6.5 or, for the forced-monomer bZIP-ΔLZ prep, 10 mM HEPES pH 7.4, with 150 mM NaCl, 10 mM MgCl2; 0.05% Tween-20 in the MES buffer); conditions: protein: recombinant; tags: N-terminal G left after TEV cleavage; label: 5' Alexa Fluor 488; blunt
Jun bZIP-ΔLZ = target: T2, Jun bZIP-ΔLZ; assay: as above; conditions: protein: recombinant; tags: N-terminal G left after TEV cleavage; label: 5' Alexa Fluor 488; blunt

| Binder | Kd (CREB-bZIP-ΔLZ) | Kd (Jun bZIP-ΔLZ) |
| --- | --- | --- |
| Alexa Fluor 488-Comp (dsDNA) DNA 1: GGCTAAAGCATTCT DNA 2: AGAATGCTTTAGCC | 440 ± 30 µM | – |
| Alexa Fluor 488 target for Jun, JunD, Fos (dsDNA) DNA 1: GGATGAGTCATTGG DNA 2: CCAATGACTCATCC | – | 0.22 ± 0.03 µM |
